Data taken from PMC6082870 (2018).

T1: human lysyl hydroxylase 3 (LH3/PLOD3), wild type (human, UniProt O60568 25-738, N-linked glycosylations at Asn63 and Asn548)
T1 chain: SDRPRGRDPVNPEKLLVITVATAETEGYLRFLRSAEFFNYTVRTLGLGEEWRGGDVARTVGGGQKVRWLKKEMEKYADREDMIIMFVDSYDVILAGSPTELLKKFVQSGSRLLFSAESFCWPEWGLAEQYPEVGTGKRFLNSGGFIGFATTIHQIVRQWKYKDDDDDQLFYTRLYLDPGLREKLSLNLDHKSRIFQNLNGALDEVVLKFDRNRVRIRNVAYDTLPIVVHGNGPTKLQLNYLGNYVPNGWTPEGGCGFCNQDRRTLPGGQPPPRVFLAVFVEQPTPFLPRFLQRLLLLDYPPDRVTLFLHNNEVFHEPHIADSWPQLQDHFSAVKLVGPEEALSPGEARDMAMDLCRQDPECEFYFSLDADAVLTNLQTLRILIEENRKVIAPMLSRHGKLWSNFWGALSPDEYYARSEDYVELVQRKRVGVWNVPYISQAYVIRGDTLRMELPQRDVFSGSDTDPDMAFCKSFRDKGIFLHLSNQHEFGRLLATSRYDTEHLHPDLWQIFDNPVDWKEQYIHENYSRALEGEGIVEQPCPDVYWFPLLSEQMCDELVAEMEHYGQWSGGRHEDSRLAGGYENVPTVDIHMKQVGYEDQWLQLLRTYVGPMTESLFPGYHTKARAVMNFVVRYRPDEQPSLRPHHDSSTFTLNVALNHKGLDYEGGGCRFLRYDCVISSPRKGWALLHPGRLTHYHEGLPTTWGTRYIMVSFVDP


Experiments:
Assay in all cases: SPR
LH3 Y114A mutant = LH3 Y114A mutant (human, UniProt O60568 25-738, Y114A)
Chain of LH3 Y114A mutant (O60568 25-738 Y114A): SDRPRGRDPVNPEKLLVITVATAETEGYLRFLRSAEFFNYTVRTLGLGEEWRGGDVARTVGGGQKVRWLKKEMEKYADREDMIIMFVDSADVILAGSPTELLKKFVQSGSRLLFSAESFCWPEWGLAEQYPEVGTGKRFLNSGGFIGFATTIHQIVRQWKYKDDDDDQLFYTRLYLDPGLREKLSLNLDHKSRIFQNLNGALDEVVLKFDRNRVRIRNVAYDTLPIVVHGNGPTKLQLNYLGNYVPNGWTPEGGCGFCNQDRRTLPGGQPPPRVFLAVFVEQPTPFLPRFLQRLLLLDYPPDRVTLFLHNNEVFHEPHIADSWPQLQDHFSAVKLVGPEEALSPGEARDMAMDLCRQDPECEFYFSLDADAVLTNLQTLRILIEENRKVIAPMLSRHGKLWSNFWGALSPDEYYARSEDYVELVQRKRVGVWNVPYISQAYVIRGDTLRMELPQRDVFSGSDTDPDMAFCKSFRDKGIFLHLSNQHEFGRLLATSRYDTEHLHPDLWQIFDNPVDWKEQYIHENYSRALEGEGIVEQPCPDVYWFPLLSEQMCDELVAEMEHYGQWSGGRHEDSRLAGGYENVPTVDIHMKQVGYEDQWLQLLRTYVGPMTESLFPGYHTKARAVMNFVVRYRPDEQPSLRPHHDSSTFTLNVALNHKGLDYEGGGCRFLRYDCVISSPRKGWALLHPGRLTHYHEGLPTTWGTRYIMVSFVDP

LH3 W75A mutant = LH3 W75A mutant (human, UniProt O60568 25-738, W75A)
Chain of LH3 W75A mutant (O60568 25-738 W75A): as the sequence (O60568 25-738 Y114A) above, with W51A, A90Y counted along it

[1] = biological target: T1, human lysyl hydroxylase 3 (LH3/PLOD3), …

Kd (LH3 Y114A mutant)	Kd (LH3 W75A mutant)	Kd [1]	Binder
6.3 mM	4.7 mM	4.4 mM	ARGIKGIRGFS
–	–	6.7 mM	IKGIKGIKG
–	–	2.4 mM	GIKGIKGIKGIK
